One molecule from patent publication US9962427B2, “Treatment of right ventricular dysfunction due to pressure overload” (OTTAWA HOSPITAL RESEARCH INSTITUTE, priority 2016, dated 2018) can be followed below.

In one experiment the test system is rats. Briefly: M-mode ECHO after 2 weeks of osmotic minipump delivery in rats. Type of experiment: in vivo, rat. The settings on record: hCT1 6 μg/kg/hr. On the procedure:
FIGS. 3A, 3B, and 3C. […] Arrows (in upper panels) point to myocardial wall (RVLW). Dotted lines (in lower panels) show inner ventricle chambers.
CT-1 was tested in vivo to determine whether its administration would induce a myocardial adaptive remodeling characteristic of physiologic compensation (FIGS. 3A, 3B, and 3C). Osmotic minipumps containing PBS control (Ctrl) or hCT1 (6 μg/kg/hr) or Isoproterenol (ISO, 1 mg/kg/day) were implanted subcutaneously in rats. ISO is a beta-adrenergic receptor agonist and continuous infusion with ISO in rats is known to induce pathological cardiac hypertrophy and cardiomyocyte damage (in both the right and left ventricles) which progresses to heart failure (Morisco et al (2001) J Mol Cell Cardiol 33:561-573 and Grimm et al (1998) Cardiovascular Research 37:91-100). After 2 weeks of treatment, M-mode ECHO analysis was used to assess myocardial structure/function (FIG. 3A). In this model, an increased right ventricle lateral wall (RVLW) thickness indicates the presence of myocardiocytes growth, and an increased ratio of the right to left ventricle internal diameters (RVID/LVID) is an indicator of pathologic hypertrophy. An increased RVLW thickness but constant or reduced RVID:LVID ratio is an indicator of adaptive compensatory RV remodeling. Both hCT1 and ISO induced a significant increase in RVLW thickness (12% and 32% fold increase, respectively) compared to control rats (n=3; * and **, P<0.05). […] An in vivo growth reversal analysis was also conducted. Following a 2 week delivery of CT-1 protein (6 μg/kg/hr) or PE (10 mg/kg/day) as the pathologic control in this case, animals were then assessed for cardiac structure/function at a 6 week follow-on period. […] Collectively, these studies support the contention that CT-1 elicits a reversible physiologic cardiac adaptive compensation.

The next experiment has as its system Fischer CDF rats. Briefly: SU5416/hypoxia model of severe pulmonary hypertension, weekly echocardiography and hemodynamics. It counts as in vivo, rat. On the procedure: FIGS. 5A and 5B. Human Cardiotrophin-1 (hCT1) improves RV adaptation to severe Pulmonary Hypertension (PH) in Fischer rats.
Given that CT-1 induces phenotypic characteristics associated with beneficial RV physiologic adaptive compensation, a prediction was made by the Applicants that CT-1 would enhance RV adaptation to increased afterload in a disease setting. This supposition was tested to examine whether CT-1 protein can improve the ability of the RV to functionally adapt and limit or reduce right heart failure that is associated with pulmonary arterial hypertension (PAH), a form of PH caused by abnormalities in the lung vasculature (FIGS. 5A and 5B). PAH has a highly tractable and reproducible rodent equivalent, the […]/hypoxia rat model, which recapitulates many key aspects of the disease including progressive right heart failure in the Fischer CDF™ rat strain, a feature that is not observed in the Sprague Dawley strain in the same model of PH. Use of this PH model offers a clear advantage in providing an accurate preclinical disease setting to test the utility of CT-1, rather than simply testing co-administration of CT-1 with general […] stimulants such as PE or ISO in vivo. […] Also, right heart failure drives symptoms and prognosis in many forms of PH, including in Group 2 PH caused by increases in left ventricular filling pressures, of which heart failure with preserved ejection fraction (HFpEF) is an important example which is increasingly recognized as one of the greatest therapeutic challenges in clinical cardiology today. PH was induced by administering a single subcutaneous injection of SU5416 (20 mg/kg) to Fischer CDF™ rats followed by exposure to chronic hypoxia (8-10% O2) for 3 weeks. After these 3 weeks, rats were recovered for 24 hours in normoxia before implantation of PBS filled (control) or hCT-1 filled (6 μg/kg/hr delivery) osmotic minipumps. Control rats were exposed to normoxic conditions throughout the study and only treated with PBS (FIG. 5A). Echocardiography analyses were conducted weekly and the following parameters were measured: Right Ventricle Posterior Wall thickness (RVPW), Ratio of Right Ventricle Internal Diameter to Left Ventricle Internal (RVID/LVID), Pulmonary Artery Acceleration Time (PAAT), Fractional Area Change (FAC), and Cardiac Output (CO). At 3 weeks (prior to pump implantation), there was already a marked and significant increase in the RVID/LVID ratio, indicative of developing RV failure in this model of severe PH. In PH animals receiving saline, there was a progressive increase in this ratio over the subsequent 3 weeks, associated with other evidence of progressive RV failure, such as worsening contractile function (Fractional Area Shortening) and reductions in cardiac output.

In the next experiment the test system is P19 cells. Briefly: P19 cardiac differentiation (cTnT immunofluorescence, beating clusters, immunoblot). Type of experiment: cell-based, mouse. On the procedure: FIG. 9A Schematic for cardiac differentiation of pluripotent P19 cells. FIG. 9B Immunofluorescence results for the cardiac-specific marker Troponin T (cTnT) in P19 cardiac cells at day 7 of differentiation in the presence of varying doses of hCT1 ranging from 0-500 ng/mL (0-25 nM). Quantification of expression of cTnT is shown on the graph. FIG. 9C Quantification of beating clusters in P19 cardiac cells at day 13-15 of differentiation in the presence of varying doses of hCT1. FIG. 9D Immunoblot for the cardiac markers cTnT and GATA4 in whole cell lysates from a P19 cardiac differentiation timecourse in the presence and absence of hCT1.
Protection during conditions of cardiac pathologies can be conferred not only by the activation of pro-survival/pro-angiogenic signaling pathways but also by inducing the differentiation of cardiogenic progenitor cells. […] To test the effect of CT1 on cardiomyocyte differentiation, undifferentiated cells were induced to undergo cardiac differentiation with 0.8% DMSO and aggregation. At day 0, P19 cells are plated onto non-adherent bacterial petri dishes in the presence of MEMα growth media with 0.8% DMSO (control) or in the presence of different doses of hCT1-containing MEMα media ranging from 0.5 nM (10 ng/mL) to 25 nM (500 ng/mL) with 0.8% DMSO. P19 cells are then allowed to aggregate for 4 days. Finally, aggregates are then transferred onto adherent tissue culture dishes in the same media (this time in the absence of DMSO) to allow for subsequent cardiac differentiation (FIG. 9A, adapted from Skerjanc et al. 1999; Trends in Cardiovascular Medicine, volume 9, pages 139-143). The cardiac specific marker Troponin T (cTnT) was used (by immunofluorescence) to identify differentiated cells.
Differentiation was also followed up to day 15 and the number of visually beating clusters was used to assess cardiac differentiation. […]
Background: A western blot detects proteins with antibodies after separation by electrophoresis.

The mark [1] stands for this setting: hCT-1 6 μg/kg/hr minipump from week 3.
Where [2] appears, read: hCT-1 6 μg/kg/hr minipump from week 3, over 3 weeks.

B1: hCT1: Recombinant human CT1 protein; 201 amino acid sequence, GenBank Accession Nos AAD12173 and AAA85229 (human) (protein, UniProt Q16619 1-201, looked up)
Cardiotrophin-1: MSRREGSLEDPQTDSSVSLLPHLEAKIRQTHSLAHLLTKYAEQLLQEYVQLQGDPFGLPSFSPPRLPVAGLSAPAPSHAGLPVHERLRLDAAALAALPPLLDAVCRRQAELNPRAPRLLRRLEDAARQARALGAAVEALLAALGAANRGPRAEPPAATASAASATGVFPAKVLGLRVCGLYREWLSRTEGDLGQLLPGGSA
Take B1: in the experiment on rats, the “RVID/LVID ratio, in words” value is given as “did not develop this pathologic state of cardiac hypertrophy”. Further, the “increase in RVLW thickness compared to control rats” value with rats (ISO 1 mg/kg/day, subcutaneous minipump) was 12 % fold increase. In addition, in the experiment with Fischer CDF rats (setting [1]), the “RV afterload (right ventricular systolic pressure, RVSP)” value is recorded as “without any alteration in the RV afterload” and the “right atrial pressure (RAP)” value is on record as “significant decrease in right atrial pressure”. Moreover, in the experiment with Fischer CDF rats (setting [2]), the RVID/LVID ratio entry is listed as “progressive improvement in the RVID/LVID ratio”, the cardiac output result is listed as “improvements” and the contractile function entry is reported as “improvements in contractile function”. In the experiment on P19 cells (10 ng/mL (0.5 nM) hCT1, days 5 and 7), the “GATA4 and cTnT expression (immunoblot)” value was “significantly inhibited GATA4 and cTnT expression”. Besides, in the experiment on P19 cells (day 7, any dose 0.5 nM to 25 nM), the “differentiation of cardiac cells (cTnT+/DAPI+)” value is given as “significantly inhibited the differentiation of cardiac cells”. In addition, in the experiment with P19 cells (days 13, 14, and 15), the “number of beating clusters” value is listed as “no beating clusters were detected”.
